Measured values published in patent US20130326645.

How the values were obtained:
Assay in all cases: cell_activity
[1] = system: ZFN 25688 (synthetic); details: pair 25688/25689, maize
[2] = system: ZFN 29732 (synthetic); details: pair 29732/29730, donor pDAS000152 10:1, A-genome (B 6306, D 7911), wheat SEC protoplasts
[3] = system: ZFN 25689 (synthetic); details: pair 25688/25689, maize
[4] = system: ZFN 25712 (synthetic); details: pair 25712/25713, maize
[5] = system: ZFN 29730 (synthetic); details: pair 29732/29730, donor pDAS000152 10:1, A-genome (B 6306, D 7911), wheat SEC protoplasts
[6] = system: ZFN 25717 (synthetic); details: pair 25716/25717, maize; text states 380 times control
[7] = system: ZFN 25716 (synthetic); details: pair 25716/25717, maize; text states 380 times control
[8] = system: ZFN 25713 (synthetic); details: pair 25712/25713, maize
[9] = system: ZFN 25686 (synthetic); details: pair 25686/25687, maize
[10] = system: ZFN 25687 (synthetic); details: pair 25686/25687, maize

In the case of “TATCGGCACAACAAGACTGCGGGTTCGG (double strand) [25688 site]”, the activity (% of IPPK2 ZFN activity) [1] is reported as 108.
“GATCCCAAGCGGTGGTGCTTTCAAGGAC (double strand) [29732 site]” was tested, and the activity (ppm NHEJ editing) [2] was 6720.
“TGGCAGTGGCAGTGGCACTGGCACGGCA (double strand) [25689 site]” gave an activity (% of IPPK2 ZFN activity) [3] of 108.
For “ATCGGGCATCGGCGACTGATGAGCCTTG (double strand) [25712 site]”, the activity (% of IPPK2 ZFN activity) [4] was 69.
For “AGGCAGCACGTGCTCCTGATGCGGGACT (double strand) [29730 site]”, the activity (ppm NHEJ editing) [5] was 6720.
“CGGAAGCGGATGGCCCGCTTCTTTAGAA (double strand) [25717 site]” showed an activity (% of IPPK2 ZFN activity as printed) [6] of 380.
With “TGATCGCATCGGGCATCGGCGACTGATG (double strand) [25716 site]” the activity (% of IPPK2 ZFN activity as printed) [7] was 380.
“GATCAACGGAAGCGGATGGCCCGCTTCT (double strand) [25713 site]” was tested, and the activity (% of IPPK2 ZFN activity) [8] was 69.
“CACAACAAGACTGCGGGTTCGGTGGCGC (double strand) [25686 site]” was tested, and the activity (% of IPPK2 ZFN activity) [9] was 32.
For “GATAGGTGGCAGTGGCAGTGGCACTGGC (double strand) [25687 site]”, the activity (% of IPPK2 ZFN activity) [10] was 32.
